Measurements published in patent US11932880B2, “Enzyme and method for assaying pentosidine using same” (priority 2018, dated 2024).

B1: Lysine Oxidase Derived from Trichoderma viride: purchased enzyme manufactured by Merck, SEQ ID NO: 14 (protein)
chain: MDNVDFAESVRTRWARRLIREKVAKELNILTERLGEVPGIPPPREGRFLGGGYSHDNLPSDPLYSSIKPALLKEAPRAEEELPPRKVCIVGAGVSGLYIAMILDDLKIPNLTYDIFESSSRTGGRLYTHHFTDAKHDYYDIGAMRYPDIPSMKRTFNLFKRTGMPLIKYYLDGENTPQLYNNHFFAKGVVDPYMVSVANGGTVPDDVVDSVGEKLQQAFGYYKEKLAEDFDKGFDELMLVDDMTTREYLKRGGPKGEAPKYDFFAIQWMETQNTGTNLFDQAFSESVIDSFDFDNPTKPEWYCIEGGTSLLVDAMKETLVHKVQNNKRVEAISIDLDAPDDGNMSVKIGGKDYSGYSTVFNTTALGCLDRMDLRGLNLHPTQADAIRCLHYDNSTKVALKFSYPWWIKDCGITCGGAASTDLPLRTCVYPSYNLGDTGEAVLLASYTWSQDATRIGSLVKDAPPQPPKEDELVELILQNLARLHAEHMTYEKIKEAYTGVYHAYCWANDPNVGGAFALFGPGQFSNLYPYLMRPAAGGKFHIVGEASSVHHAWIIGSLESAYTAVYQFLYKYKMWDYLRLLLERWQYGLQELETGKHGTAHLQFILGSLPKEYQVKIV
modifications: Trichoderma viride
B2: Amino Acid Oxidase Type VI Derived from Crotalus adamanteus: purchased enzyme manufactured by Merck, SEQ ID NO: 12 (protein, listed as Crotalus adamanteus)
chain: AHDRNPLEECFRETDYEEFLEIAKNGLTATSNPKRVVIVGAGMAGLSAAYVLAGAGHQVTVLEASERVGGRVRTYRKKDWYANLGPMRLPTKHRIVREYIKKFDLKLNEFSQENENAWYFIKNIRKRVREVKNNPGLLEYPVKPSEEGKSAAQLYVESLRKVVEELRSTNCKYILDKYDTYSTKEYLLKEGNLSPGAVDMIGDLLNEDSGYYVSFIESLKHDDIFGYEKRFDEIVGGMDQLPTSMYEAIKEKVQVHFNARVIEIQQNDREATVTYQTSANEMSSVTADYVIVCTTSRAARRIKFEPPLPPKKAHALRSVHYRSGTKIFLTCTKKFWEDDGIHGGKSTTDLPSRFIYYPNHNFTSGVGVIIAYGIGDDANFFQALDFKDCADIVINDLSLIHELPKEDIQTFCHPSMIQRWSLDKYAMGGITTFTPYQFQHFSEALTAPFKRIYFAGEYTAQFHGWIDSTIKSGLTAARDVNRASENPSGIHLSNDNEF
B3: Amino Acid Oxidase Type I Derived from Crotalus atrox: purchased enzyme manufactured by Merck, SEQ ID NO: 13 (protein)
chain: B2 chain
modifications: Crotalus atrox
B4: PenOX1: protein having the amino acid sequence of SEQ ID NO: 2, pentosidine oxidase from Sarocladium sp., gene g4462 (protein, listed as Sarocladium sp.)
chain: MKSPSLAVAGLLLGSSSLSHATQLRIETRKSLNSRIANVHIDVDAPVAHQVVFTYGPCDSESQENAHHVIAQSQKLEGRKPHRLIWTMPKDLHPDDCISAWGESGDLLGRSVPQKVAHKEMRRRKRDDSDYSIPMNSSSGIDVYGPWFDGVALLEKSDNHNVDVEAAKAKEIAIVGAGMAGLTTYFILSEAGLSNLTILEASGRLGGRVRTEYLSGGPRDHSYAEMGPMRIPYQARFGDKAYNISDQAIFFRLVEKVNERNKKLGNTKDLINLIPFIQSSPNGLAYYQGNKLENGLPPTQADVAADPALGNESPEIPESAQELAAQLQRALPNAEFLELMATNFWQAHAEFLENQGPAGLPGDQWSEFAFLVNYLNATVFDANAVTGGYDWHSSLDRSSLVGMNLLPNAFHPLVDDITKFNAKVEKVQLDEKTSRLKLHWRANYTDPELESQSFDYAILSPTMPAVQKLRLPGLPFAMRNAVDSMPYASACKVALEYRTRFWEKFDNPIYGSCSTSTDIPGIGSVCYPSSNINGSGPASLLASYEIGRPYGAEWAGIPEEQHVQYVIDAMIDIHGEVARREFTGKCKRKCWALDEFSNGGWASPTVGNHETYLPSFFETHSHMIFVGEHTSYTHAWIASAIESAVRGSVQLLLELGLIDEAKDVVNTWMARWISVVSDLSKAVVSGASA

What was measured:
[1] = Enzyme activity measurement with pentosidine as substrate (A555 change, U/mL); assay type: biochemical; details: 37° C.; for specific activity, as a reference value (pentosidine oxidase): 1 mg of powder dissolved in 1 mL deionized water; for pentosidine oxidase activity: purchased enzymes at 1 mg/mL, potassium phosphate buffer pH 7.5, 100 mM
Protocol: 600 μL of an arbitrary buffer, 400 μL of deionized water solution in which 3.99 U/mL peroxidase, 1.8 mM 4-aminoantipyrine and 2 mM TOOS were dissolved, and 150 μL of deionized water were incubated at an arbitrary temperature for 10 minutes. Then, 50 μL of the enzyme solution having been stored on ice and 400 μL of a solution of 4 mM pentosidine dissolved in a 100 mM potassium phosphate buffer (pH 8.0) having been incubated at an arbitrary temperature for 10 minutes were added thereto, followed by stirring and reacting at an arbitrary temperature for 3 minutes. A change over time of A555 during the reaction was measured using a spectrophotometer (U-3900, manufactured by Hitachi High-Tech Science Corporation). An elapsed time from the start of the measurement of 20 seconds to 60 seconds—A555 change was regarded as an activity value.
Besides, an amount of the enzyme generating 1 μmol of hydrogen peroxide per minute at 37° C. was defined as one unite (U), and the activity was calculated in accordance with the following equation. Activity (U/mL)={(ΔAs−ΔA0)×1.6×df}/(39.2×0.5×0.05) • ΔAs: change of A555 per minute of reaction solution • ΔA0: change of A555 per minute of control experiment • 1.6: volume (mL) of whole reaction solution • df: dilution factor • 39.2: millimolar absorbance coefficient (mM^−1-cm-1) of quinoneimine pigment generated through reaction • 0.5: molar number of quinoneimine pigment generated by 1 mol of hydrogen peroxide • 0.05: volume (mL) of enzyme solution
A 50 mM citric acid-100 mM potassium phosphate buffer (pH 4.0 to 7.5, a final concentration), a potassium phosphate buffer (pH 6.5 to 8.0, a final concentration of 100 mM), and a glycine buffer (pH 8.0 to 11.0, a final concentration of 100 mM) were prepared, and these were used to perform an enzymatic reaction at respective pH at a temperature of 37° C. […] Therefore, it was determined that the optimum pH of PenOX2 is pH 6.5 to 8.0, and that the most suitable optimum pH is pH 7.5.
A potassium phosphate buffer (pH 7.5) having a final concentration of 50 mM was used to perform the activity measurement of PenOX2 at various temperatures. The highest activity was obtained around 50° C., and a temperature range for attaining 80% or more of this highest activity was 37° C. to 50° C. Therefore, it was determined that the range of the optimum temperature of PenOX2 is 37° C. to 50° C.
The above-described activity measurement method was employed to perform activity measurement using a potassium phosphate buffer (final pH in the activity measurement: pH 7.5, final concentration of 50 mM) at 37° C., and an activity value (U/mL) was obtained by using the aforementioned equation.
As described above, both PenOX1 and PenOX2 had the pentosidine oxidase activity. […] Subsequently, the following three enzymes were purchased, and the above-described activity measurement method was employed for confirming their pentosidine oxidase activity using a potassium phosphate buffer (pH 7.5, final concentration of 100 mM) at 37° C. The amino acid sequence homologies with PenOX1 and PenOX2 and the pentosidine oxidase activities of these enzymes were as follows.

[2] = Pentosidine quantitative test (DA-67/peroxidase, A658, Bio Majesty JCA-BM1650); assay type: biochemical; details: 0.2-4.0 μM pentosidine solutions, 37° C., 5 minutes; ΔA658 correlated with final pentosidine concentration (FIG. 4)
Protocol: The following reagents were prepared to measure pentosidine by using Bio Majesty JCA-BM1650 (manufactured by JEOL Ltd.).
0.2 μM, 0.4 μM, 0.6 μM, 1.0 μM, 2.0 μM or 4.0 μM pentosidine solution
25 μL of the sample was added to 50 μL of the first reagent, and the resultant was incubated at 37° C. for 5 minutes. Then, 25 μL of the second reagent was added thereto to allow a pentosidine oxidation reaction owing to PenOX2 and a detection reaction for hydrogen peroxide generated through the reaction to proceed at 37° C. for 5 minutes.
In the detection reaction for hydrogen peroxide, simultaneously with consumption of […], DA-67 is oxidized into methylene blue to present the color, and the absorbance (A658) is increased. As an example, the relationship between the elapsed time after the mixture of the sample (4.0 μM pentosidine solution) and the first reagent and the absorbance (A658) is shown in FIG. 3. It was confirmed that A658 increased immediately after the addition of the second reagent containing PenOX2.
Subsequently, an A658 increment (AA) caused by the oxidation of pentosidine was calculated in accordance with the following equation: ΔA=(absorbance 5 min after addition of second reagent)−(absorbance immediately before addition of second reagent×0.75)

Molecule	specific activity, as a reference value (pentosidine oxidase) ([1]; pH 7.5, 100 mM) [U/mg]	pentosidine oxidase activity [1] [U/mL]	specific activity (pentosidine oxidase) ([1]; enzyme concentration 1 mg/mL (biuret method), pH 7.5, 100 mM) [U/mg]	pentosidine oxidation activity [2]
B1	0.063	0.063		
B2		0.555	0.555	
B3	0.022	0.022		
B4				similarly exhibited pentosidine oxidation activity
